Patent US20100015644A1

How the values were obtained:
[1] = biological target: FcγRIIIaECD176VHis (HEK-293F, prepared as in Example 4) (human) (UniProt P08637); assay: AlphaScreen bridging assay: His-tagged FcγRIIIa176V on Ni-acceptor beads and sCD4-biotine on SA-donor beads; signal needs binding to both
[2] = biological target: FcγRIIIaECD176VHis (HEK-293F, prepared as in Example 4) (human) (UniProt P08637); assay: ELISA, plate-bound FcγRIIIa176V; relative potency from EC50
[3] = biological target: CD4 on CD4+ T cells (human) (UniProt P01730); assay: cell-based or functional assay
[4] = biological target: sCD4 (UniProt P01730); assay: ELISA, plate-bound sCD4 2.0 µg/ml; relative potency from EC50
[5] = biological target: Fc receptor on NK cells (effector cells of the ADCC assay) (human) (UniProt P08637); assay: cell-based or functional assay
[6] = biological target: FcγRIIIaECD176VHis batch 646-005-EP (CHO-K1SV derived) (human) (UniProt P08637); assay: ELISA; FcγRIIIa176V directly coated or captured by anti-polyhistidine mAb
Chain of FcγRIIIaECD176VHis batch 646-005-EP (CHO-K1SV derived) (human) (P08637 other isoform, or with tags, fused parts or gaps limits assumed): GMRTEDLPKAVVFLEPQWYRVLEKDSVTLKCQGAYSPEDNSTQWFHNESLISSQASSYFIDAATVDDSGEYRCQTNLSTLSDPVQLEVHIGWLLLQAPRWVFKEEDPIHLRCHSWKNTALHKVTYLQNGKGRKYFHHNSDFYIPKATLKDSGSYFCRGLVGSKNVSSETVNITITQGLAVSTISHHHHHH

Chain of Fc receptor on NK cells (effector cells of the ADCC assay) (human) (P08637 17-254): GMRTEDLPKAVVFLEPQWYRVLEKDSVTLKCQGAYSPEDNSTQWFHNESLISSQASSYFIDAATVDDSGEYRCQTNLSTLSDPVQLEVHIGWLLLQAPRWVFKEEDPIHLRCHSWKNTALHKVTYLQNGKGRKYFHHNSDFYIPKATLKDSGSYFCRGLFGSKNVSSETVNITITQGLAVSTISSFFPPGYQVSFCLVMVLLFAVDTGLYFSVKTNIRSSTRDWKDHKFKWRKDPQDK
Chain of FcγRIIIaECD176VHis (HEK-293F, prepared as in Example 4) (human) (P08637 other isoform, or with tags, fused parts or gaps limits assumed): as the sequence (P08637 other isoform, or with tags, fused parts or gaps limits assumed) above

For zanolimumab batch BO118 (antibody), the binding capacity (% of the reference batch) (% of reference batch MRS-CD4-001) [1] was 88.
“zanolimumab mixed batch M90-MRS-CD4 (antibody)” was tested, and the relative potency (relative to MRS-CD4-001) [2] was 0.7 and the binding capacity (% of the reference batch) (% of reference batch MRS-CD4-001) [1] was 75.
With zanolimumab batch BN078 (antibody) the binding capacity (% of the reference batch) (% of reference batch MRS-CD4-001) [1] was 89.
In the case of “zanolimumab (batch not stated) (antibody)”, the reduction of the level of CD4 expression after 18-24 h (flow cytometry with non-competing anti-CD4) [3] is reported as 50 to 80%.
With zanolimumab batch GMP#3 (antibody) the relative potency (sCD4 binding), Exp 1 (relative to MRS-CD4-001) [4] was 0.91, the relative potency (sCD4 binding), Exp 2 (relative to MRS-CD4-001) [4] was 0.92 and the relative potency (sCD4 binding), mean (relative to MRS-CD4-001) [4] was 0.92. It also gave a relative potency (FcγRIIIa176V binding), Exp 1 (relative to MRS-CD4-001) [2] of 1.12, a relative potency (FcγRIIIa176V binding), Exp 2 (relative to MRS-CD4-001) [2] of 1.12 and a relative potency (FcγRIIIa176V binding), mean (relative to MRS-CD4-001) [2] of 1.12. For the same substance, the relative potency (FcγRIIIa176V binding), related to parent batch GMP#3 (relative to GMP#3) [2] was 1, the Relative potency (ADCC), Exp 1 (relative to MRS-CD4-001) [5] was 0.98 and the Relative potency (ADCC), Exp 2 (relative to MRS-CD4-001) [5] was 1.3. It also gave a Relative potency (ADCC), Exp (third) (relative to MRS-CD4-001) [5] of 1.45, a Relative potency (ADCC), mean (relative to MRS-CD4-001) [5] of 1.24 and a Relative potency (ADCC), relative to batch GMP#3 (relative to GMP#3) [5] of 1.
“zanolimumab batch MOCK-GMP#3-CD4 (sham-de-glycosylated) (antibody)” showed a relative potency (sCD4 binding), Exp 1 (relative to MRS-CD4-001) [4] of 0.98, a relative potency (sCD4 binding), Exp 2 (relative to MRS-CD4-001) [4] of 0.85 and a relative potency (sCD4 binding), mean (relative to MRS-CD4-001) [4] of 0.92. It also gave a relative potency (FcγRIIIa176V binding), Exp 1 (relative to MRS-CD4-001) [2] of 1.23, a relative potency (FcγRIIIa176V binding), Exp 2 (relative to MRS-CD4-001) [2] of 1.23 and a relative potency (FcγRIIIa176V binding), mean (relative to MRS-CD4-001) [2] of 1.23. For the same substance, the relative potency (FcγRIIIa176V binding), related to parent batch GMP#3 (relative to GMP#3) [2] was 1.09, the Relative potency (ADCC), Exp 1 (relative to MRS-CD4-001) [5] was 1.38 and the Relative potency (ADCC), Exp 2 (relative to MRS-CD4-001) [5] was 1.55. It also gave a Relative potency (ADCC), Exp (third) (relative to MRS-CD4-001) [5] of 1.42, a Relative potency (ADCC), mean (relative to MRS-CD4-001) [5] of 1.45 and a Relative potency (ADCC), relative to batch GMP#3 (relative to GMP#3) [5] of 1.17.
In the case of HuMax-EGFr (antibody), the EC50 ratio of the two HuMax-EGFr batches [6] is reported as 2.
For “zanolimumab batch UNG-GMP#3-CD4 (de-glycosylated) (antibody)”, the relative potency (sCD4 binding), Exp 1 (relative to MRS-CD4-001) [4] was 0.96, the relative potency (sCD4 binding), Exp 2 (relative to MRS-CD4-001) [4] was 1.01 and the relative potency (sCD4 binding), mean (relative to MRS-CD4-001) [4] was 0.99.
“zanolimumab mixed batch M50-MRS-CD4 (antibody)” was tested, and the binding capacity (% of the reference batch) (% of reference batch MRS-CD4-001) [1] was 53.
In the case of “zanolimumab mixed batch M50-GMP#3-CD4 (antibody)”, the relative potency (sCD4 binding), Exp 1 (relative to MRS-CD4-001) [4] is reported as 1.03, the relative potency (sCD4 binding), Exp 2 (relative to MRS-CD4-001) [4] is reported as 0.9 and the relative potency (sCD4 binding), mean (relative to MRS-CD4-001) [4] is reported as 0.97. The relative potency (FcγRIIIa176V binding), Exp 1 (relative to MRS-CD4-001) [2] was 0.5, the relative potency (FcγRIIIa176V binding), Exp 2 (relative to MRS-CD4-001) [2] was 0.6 and the relative potency (FcγRIIIa176V binding), mean (relative to MRS-CD4-001) [2] was 0.55. For the same substance, the relative potency (FcγRIIIa176V binding), related to parent batch GMP#3 (relative to GMP#3) [2] was 0.49, the Relative potency (ADCC), Exp 1 (relative to MRS-CD4-001) [5] was 0.14 and the Relative potency (ADCC), Exp 2 (relative to MRS-CD4-001) [5] was 0.64. For the same substance, the Relative potency (ADCC), Exp (third) (relative to MRS-CD4-001) [5] was 0.39, the Relative potency (ADCC), mean (relative to MRS-CD4-001) [5] was 0.39 and the Relative potency (ADCC), relative to batch GMP#3 (relative to GMP#3) [5] was 0.31.
Substance “zanolimumab batch MRS-CD4-001 (antibody)” has a relative potency (sCD4 binding), Exp 1 (relative to MRS-CD4-001) [4] of 1, a relative potency (sCD4 binding), Exp 2 (relative to MRS-CD4-001) [4] of 1 and a relative potency (sCD4 binding), mean (relative to MRS-CD4-001) [4] of 1. For the same substance, the relative potency (FcγRIIIa176V binding), Exp 1 (relative to MRS-CD4-001) [2] was 1, the relative potency (FcγRIIIa176V binding), Exp 2 (relative to MRS-CD4-001) [2] was 1 and the relative potency (FcγRIIIa176V binding), mean (relative to MRS-CD4-001) [2] was 1. The Relative potency (ADCC), Exp 1 (relative to MRS-CD4-001) [5] was 1, the Relative potency (ADCC), Exp 2 (relative to MRS-CD4-001) [5] was 1 and the Relative potency (ADCC), Exp (third) (relative to MRS-CD4-001) [5] was 1. The Relative potency (ADCC), mean (relative to MRS-CD4-001) [5] was 1.
zanolimumab batch MEV005 (antibody) was tested, and the binding capacity (% of the reference batch) (% of reference batch MRS-CD4-001) [1] was 84.
For “zanolimumab batch MOCK-MRS-CD4 (sham-deglycosylated) (antibody)”, the binding capacity (% of the reference batch) (% of reference batch MRS-CD4-001) [1] was 81.
